Molecular target: parkin (wild-type, GST-tagged) (UniProt O60260 1-465)
Assay: EMSA; parkin 100 nM to 1 uM, 0.1 nM probe; shift increases with parkin; 1x binding buffer (Panomics), room temperature, 20 min; 0.1 nM biotin probe, 1 uM parkin (100 nM-1 uM titration); 6% PAGE in 0.5x TBE pH 8.3; salt not stated
Conditions: protein: recombinant; tags: GST; label: 5' biotin; blunt

Chain of parkin (wild-type, GST-tagged) (O60260 whole entry): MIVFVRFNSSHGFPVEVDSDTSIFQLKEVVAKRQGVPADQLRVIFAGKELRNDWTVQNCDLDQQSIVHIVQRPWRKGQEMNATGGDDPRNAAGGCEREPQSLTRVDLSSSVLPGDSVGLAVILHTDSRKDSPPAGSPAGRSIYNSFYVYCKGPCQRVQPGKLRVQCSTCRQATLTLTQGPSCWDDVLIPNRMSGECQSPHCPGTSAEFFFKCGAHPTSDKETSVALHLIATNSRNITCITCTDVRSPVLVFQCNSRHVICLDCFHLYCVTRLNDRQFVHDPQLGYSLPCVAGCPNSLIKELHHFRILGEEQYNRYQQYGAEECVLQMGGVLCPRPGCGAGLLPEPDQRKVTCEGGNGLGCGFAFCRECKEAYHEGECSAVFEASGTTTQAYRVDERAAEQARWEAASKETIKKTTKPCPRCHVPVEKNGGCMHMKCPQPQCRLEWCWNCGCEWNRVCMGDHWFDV

B1: Pp53 (human p53 promoter probe) (dsDNA)
DNA 1: GGCACCAGGTCGGCGAGAATCCTGACTCTGCACCCTCCTCCCCAACTCCATTTCCTTTGCTTCCTCCGGC
DNA 2: GCCGGAGGAAGCAAAGGAAATGGAGTTGGGGAGGAGGGTGCAGAGTCAGGATTCTCGCCGACCTGGTGCC
- binding result: binds

Reference: paper PMC3765907, “S-Nitrosylation of parkin as a novel regulator of p53-mediated neuronal cell death in sporadic Parkinson’s disease”
